Where a chain is given by its changes, count along the chain named.
T1: EBOV GP on rVSV particles (Ebola virus (EBOV), UniProt Q05320 33-676)
T1 sequence: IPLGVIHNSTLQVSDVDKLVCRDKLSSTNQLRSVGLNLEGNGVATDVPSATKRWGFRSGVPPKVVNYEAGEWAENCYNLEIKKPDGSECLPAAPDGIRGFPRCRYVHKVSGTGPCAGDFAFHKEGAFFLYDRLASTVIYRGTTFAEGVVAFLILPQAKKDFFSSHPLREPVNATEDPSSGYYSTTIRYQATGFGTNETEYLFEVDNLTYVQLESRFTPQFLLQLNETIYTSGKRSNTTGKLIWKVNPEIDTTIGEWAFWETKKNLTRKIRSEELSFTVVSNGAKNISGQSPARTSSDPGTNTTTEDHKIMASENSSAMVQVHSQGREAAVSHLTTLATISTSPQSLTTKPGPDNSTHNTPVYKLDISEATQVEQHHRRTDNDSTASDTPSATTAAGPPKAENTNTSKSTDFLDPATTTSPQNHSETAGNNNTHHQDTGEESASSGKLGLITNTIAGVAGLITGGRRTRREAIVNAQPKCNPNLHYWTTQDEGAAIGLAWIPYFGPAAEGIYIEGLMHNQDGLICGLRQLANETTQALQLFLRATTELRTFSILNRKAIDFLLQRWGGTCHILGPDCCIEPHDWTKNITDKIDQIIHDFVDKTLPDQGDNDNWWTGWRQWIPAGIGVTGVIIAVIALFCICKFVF

T2: SUDV GP on rVSV particles (Sudan virus (SUDV), UniProt Q66814 33-676)
T2 sequence: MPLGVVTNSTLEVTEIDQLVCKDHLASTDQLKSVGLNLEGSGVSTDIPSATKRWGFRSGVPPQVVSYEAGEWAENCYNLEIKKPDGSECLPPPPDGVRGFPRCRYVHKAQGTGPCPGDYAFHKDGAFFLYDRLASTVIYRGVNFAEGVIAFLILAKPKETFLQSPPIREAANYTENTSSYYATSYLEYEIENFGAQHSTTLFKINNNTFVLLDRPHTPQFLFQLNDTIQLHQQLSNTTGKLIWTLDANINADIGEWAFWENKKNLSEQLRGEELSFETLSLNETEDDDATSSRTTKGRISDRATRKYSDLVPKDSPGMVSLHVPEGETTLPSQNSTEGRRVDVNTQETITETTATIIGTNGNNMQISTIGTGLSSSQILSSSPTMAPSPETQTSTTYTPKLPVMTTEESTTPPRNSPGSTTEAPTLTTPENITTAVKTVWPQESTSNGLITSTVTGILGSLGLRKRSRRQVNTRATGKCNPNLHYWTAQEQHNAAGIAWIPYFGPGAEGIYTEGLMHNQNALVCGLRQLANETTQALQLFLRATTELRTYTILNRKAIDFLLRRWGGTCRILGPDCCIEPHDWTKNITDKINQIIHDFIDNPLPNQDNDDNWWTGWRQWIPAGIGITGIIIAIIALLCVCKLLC

T3: EBOV GPCL on cleaved VSV-GP particles (Ebola virus (EBOV), UniProt Q05320 33-676)
T3 sequence: T1 sequence

T4: RESTV GP on rVSV particles (Reston virus (RESTV), UniProt Q66799 34-677)
T4 sequence: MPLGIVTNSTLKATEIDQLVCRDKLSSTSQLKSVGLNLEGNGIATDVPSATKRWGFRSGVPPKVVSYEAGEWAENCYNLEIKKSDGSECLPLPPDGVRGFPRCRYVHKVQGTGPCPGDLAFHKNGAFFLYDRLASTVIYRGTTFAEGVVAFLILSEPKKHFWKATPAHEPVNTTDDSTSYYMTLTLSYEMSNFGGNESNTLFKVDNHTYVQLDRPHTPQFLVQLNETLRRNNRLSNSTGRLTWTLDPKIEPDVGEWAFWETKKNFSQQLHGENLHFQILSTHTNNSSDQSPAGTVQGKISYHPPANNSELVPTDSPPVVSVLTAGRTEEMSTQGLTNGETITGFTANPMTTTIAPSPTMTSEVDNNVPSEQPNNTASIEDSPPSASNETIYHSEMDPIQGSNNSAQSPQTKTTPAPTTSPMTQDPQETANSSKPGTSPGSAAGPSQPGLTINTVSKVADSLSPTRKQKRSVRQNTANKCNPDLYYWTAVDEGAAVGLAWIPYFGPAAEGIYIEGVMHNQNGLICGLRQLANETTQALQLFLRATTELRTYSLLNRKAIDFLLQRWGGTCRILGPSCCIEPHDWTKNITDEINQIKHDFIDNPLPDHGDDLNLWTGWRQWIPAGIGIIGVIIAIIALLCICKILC

T5: TAFV GP on VSV pseudotype particles (Tai Forest virus (TAFV), UniProt Q66810 33-676)
T5 sequence: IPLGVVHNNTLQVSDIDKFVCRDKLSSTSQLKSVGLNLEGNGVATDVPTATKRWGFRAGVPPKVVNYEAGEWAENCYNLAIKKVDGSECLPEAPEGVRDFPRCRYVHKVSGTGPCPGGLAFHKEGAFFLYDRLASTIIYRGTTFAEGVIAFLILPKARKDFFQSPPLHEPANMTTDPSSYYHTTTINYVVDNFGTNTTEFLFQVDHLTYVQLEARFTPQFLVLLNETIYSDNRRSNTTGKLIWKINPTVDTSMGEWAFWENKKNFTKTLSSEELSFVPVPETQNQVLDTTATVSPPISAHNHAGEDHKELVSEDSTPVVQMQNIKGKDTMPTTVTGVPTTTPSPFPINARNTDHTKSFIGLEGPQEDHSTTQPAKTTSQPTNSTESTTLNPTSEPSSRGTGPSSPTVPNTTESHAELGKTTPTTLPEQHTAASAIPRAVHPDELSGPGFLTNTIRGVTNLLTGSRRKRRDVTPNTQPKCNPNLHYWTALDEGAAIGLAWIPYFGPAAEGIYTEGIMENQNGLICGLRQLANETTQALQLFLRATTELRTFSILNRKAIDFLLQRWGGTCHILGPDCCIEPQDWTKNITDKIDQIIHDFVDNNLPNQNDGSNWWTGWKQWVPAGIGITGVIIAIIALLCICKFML

B1: mAb PE-87 (antibody, V domains shown)
VH: QVQLVQSGVTLVQPGGSLRVSCAASGFTFSSYAMSWVRQAPGKGLEWVSAISGLGGSTYYADSVKGRFTISRDNSKNTLYLQMNSLRAEDTAVYYCAKDHRVWAAGYHFDYWGQGALVTVSS
VL: DIVLTQSPSTLSASVGDRVTITCRASQSISSWLAWYQQKPGEAPKLLISDASSLESGVPSRFSGSGSGTEFTLTISSLQPDDFATYYCQQYYSSPTFGGGTKVEIK
B2: mAb PE-24 (antibody, V domains shown)
VH: EVQLVESGGGLVQPGGSLRLSCAASGFTFSSYAMSWVRQAPGKGLEWVSEISGLGGSTYYADSAKGRFTISRDNSKSTLYLQMNSLRAEDTAVYYCAKDHRVWAPGYYFDHWGQGTLVTVSS
VL: B1 VL with E42K, S49Y, Y87F, Y92N, S93R
B3: mAb PE-05 (antibody, V domains shown)
VH: QVQLQESGGGLVKPGRSLRLSCTASGFTFGDYAMSWFRQAPGKGLEWVGFLRSKAYGGTAEYAASVKGRFTMSRDDSKSIAYLQMNSLKTEDTAVYFCTRDGFRGSSWGYSYYGMDVWGQGTTVTVSS
VL: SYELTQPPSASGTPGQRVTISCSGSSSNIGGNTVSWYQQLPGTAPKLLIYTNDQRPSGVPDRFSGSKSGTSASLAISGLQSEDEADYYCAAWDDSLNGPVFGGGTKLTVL
B4: mAb PE-16 (antibody, V domains shown)
VH: QVQLVQSGAEVTKPGASVKVSCKASGYTFTTYYMHWVRQAPGQGLEWVGIINPSGGITRYAQKFQGRVTLTRDTSTTTVYMELSSLRSEDTAVYYCARDRYPVLFATDYGMDVWGQGTTVTVSS
VL: DIVMTQSPATLSLSPGERATLSCRASQSVSGYLAWYQQKPGQAPRLLIYDASNRATGIPARFSGSGSGTDFTLTISSLEPEDFAVYYCQQRSIWPPGVTFGGGTKVEIK
B5: mAb PE-47 (antibody, V domains shown)
VH: EVQLVESGGGLVKPGGSLRLSCAASGFTFSNAWMSWVRQAPGEGLEWVGRIKSKTDGGTIDYAAPVKGRFTISRDDSKNTVYLQMTSLKTEDTAVYYCTTYTEDMQYFDWLLRGGETFDYWGQGTLVTVSS
VL: DIQMTQSPSSLSASVGDRVTITCRASQYISTYLNWYQQKPGKAPKLLIYAAYNLQSGVPSRFSGSGSGTDFTLTISSLQPEDFATYYCQQSYSTPGRYTFGQGTKVEIK

target: T1, EBOV GP on rVSV particles; test: cell-based or functional assay

Compared with B1, B2 is 3.6-fold higher in “Neutralization (VSV-GP IC50, nM)” value: 0.5 nM for the first, 1.8 nM for the second.

Compared with B3, B4 is 44-fold lower in “Neutralization (VSV-GP IC50, nM)” value: 8.8 nM for the first, 0.2 nM for the second.

In the case of B5, the “Neutralization (VSV-GP IC50, nM)” value is reported as 6.6 nM.

target: T2, SUDV GP on rVSV particles; test: cell-based or functional assay

Compared with B1, B2 is 1.7-fold higher in “Neutralization (VSV-GP IC50, nM)” value: 0.3 nM for the first, 0.5 nM for the second.

Compared with B3, B5 is 6.7-fold lower in “Neutralization (VSV-GP IC50, nM)” value: 34 nM for the first, 5.1 nM for the second.

target: T3, EBOV GPCL on cleaved VSV-GP particles; test: cell-based or functional assay

Compared with B1, B2 is 3-fold higher in “Neutralization (VSV-GP IC50, nM)” value: 0.2 nM for the first, 0.6 nM for the second.

Compared with B4, B5 is 71-fold lower in “Neutralization (VSV-GP IC50, nM)” value: 5.7 nM for the first, 0.08 nM for the second.

target: T4, RESTV GP on rVSV particles; test: cell-based or functional assay

B1 and B2 are the same in “rVSV-GP neutralization IC50” value: 200 pM for the first, 200 pM for the second.

With B3 the “rVSV-GP neutralization IC50” value was 22000 pM.

target: T1, EBOV GP on rVSV particles; test: cell-based or functional assay; remark: another data set of the same source

First: B1
Second: B2
The “rVSV-GP neutralization IC50” value of the first is 4-fold lower: 500 pM for the first, 2000 pM for the second.

First: B3
Second: B4
The “rVSV-GP neutralization IC50” value of the first is 45-fold higher: 9000 pM for the first, 200 pM for the second.

target: BDBV GP on rVSV particles (Bundibugyo virus (BDBV)); test: cell-based or functional assay

Compared with B1, B2 is 2-fold higher in “rVSV-GP neutralization IC50” value: 500 pM for the first, 1000 pM for the second.

First: B3
Second: B4
The “rVSV-GP neutralization IC50” value of the first is 6.7-fold higher: 4000 pM for the first, 600 pM for the second.

target: T5, TAFV GP on VSV pseudotype particles; test: cell-based or functional assay

First: B1
Second: B2
The “rVSV-GP neutralization IC50” value of the first is 1.5-fold lower: 1000 pM for the first, 1500 pM for the second.

Going from B3 to B4, the “rVSV-GP neutralization IC50” value rises from 800 pM to 4800 pM (6-fold).

target: T2, SUDV GP on rVSV particles; test: cell-based or functional assay; remark: another data set of the same source

Compared with B1, B2 is 1.7-fold higher in “rVSV-GP neutralization IC50” value: 300 pM for the first, 500 pM for the second.

B3 was tested, and the “rVSV-GP neutralization IC50” value was 34000 pM.

Reference: patent US20180244758A1 (MAPP BIOPHARMACEUTICAL, published 2018)
